Reference: article PMC7948495, “The flexible N-terminus of BchL autoinhibits activity through interaction with its [4Fe-4S] cluster and released upon ATP binding” (The Journal of Biological Chemistry, 2020)

Target: the molecule itself
Test: crystal structure; nucleotide-free BchL crystallised anaerobically at 15 °C by vapor diffusion; 100 μM dimeric BchL in 100 mM Hepes pH 7.5, 150 mM NaCl, 10% glycerol, 1.7 mM dithionite; well 0.6 M NaCl, 0.1 M MES:NaOH pH 6.5, 20% PEG 4000; 2.6 Å

B1: BchL (L-protein of dark-operative protochlorophyllide oxidoreductase, DPOR) from Rhodobacter sphaeroides (enzyme, UniProt Q9RFD6 1-297, looked up)
chain: MSPKDLTIPTGADGEGSVQVHLDEADKITGAKVFAVYGKGGIGKSTTSSNLSAAFSILGKRVLQIGCDPKHDSTFTLTGSLVPTVIDVLKDVDFHPEELRPEDFVFEGFNGVMCVEAGGPPAGTGCGGYVVGQTVKLLKQHHLLDDTDVVIFDVLGDVVCGGFAAPLQHADQAVVVTANDFDSIYAMNRIIAAVQAKSKNYKVRLAGCVANRSRATDEVDRFCKETNFRRLAHMPDLDAIRRSRLKKKTLFEMDEDQDVLAARAEYIRLAESLWRGLDPIDPHSLPDRDIFELLGFD
notes: BchL, Rhodobacter sphaeroides; coding region PCR-amplified from genomic DNA and cloned into pRSF-Duet 1 or pET-Duet 1; a TEV protease site follows the His tag; Homodimer with one [4Fe-4S] cluster at the dimer interface, ligated by two cysteines from each subunit; also called WT BchL
B1: binds.
